Drawing on paper PMC10659578, “Mechanism of stepwise electron transfer in six-transmembrane epithelial antigen of the prostate (STEAP) 1 and 2” (eLife, 2023), this text covers rate constant of the B to C conversion (reduction of the heme of 1.5 uM STEAP1 pre-incubated with 1.5 uM b5R after mixing with 10 uM NADH; rapid-scan stopped flow, anaerobic) and Kd for 1 molecule.

Test [1] has as its target Rabbit six-transmembrane epithelial antigen of the prostate 1 (STEAP1) (rabbit).
The target is the same in test [2]. As to the kind of experiment: BLI; STEAP1 immobilised on amine reactive second-generation biosensors (EDC/Sulfo-NHS); b5R at 20, 10, 5, 2.5, 1.3 and 0.6 uM; 30 C, 1000 rpm; 20 mM HEPES pH 7.5, 150 mM NaCl, 0.1% LMNG, 0.1% BSA; KD from equilibrium responses (Req) against [b5R]. On the technique in general: BLI is a label-free optical method that tracks binding on a fibre tip over time.

B1: Mouse cytochrome b5 reductase, soluble form (residues 24-301) (enzyme)
chain: SKVPLKQGRSLMDWIRLTKSGKDLTGLKGGLIEVTEEELKKHNKKEDCWICIRGFVYNVSPYMEYHPGGEDELMRAAGADGTDLFNEVHRWVNYESMLKECLVGRMAVKPAVPKDCHEGKRVLNGMLPKSQMSDTLPRDVTDTLPREDLSSPSYDWFQTESSVTIVVYTKQKNISLDSVIVDLQDDSLRAEAVIKDHSYLVHVGLSHEVQENFSVRVIENVGKIEIVLQKKESVSWQCLGDHLEKHDSFIPKKDTGLYYRRCQLISKEDVTHDTRLFC
For orientation: Kd means the equilibrium constant for the complex coming apart. The molecule B1 had a rate constant of the B to C conversion (reduction of the heme of 1.5 uM STEAP1 pre-incubated with 1.5 uM b5R after mixing with 10 uM NADH; rapid-scan stopped flow, anaerobic) in test [1] of 0.13 s^–1. The Kd in test [2] came to 5.9 µM.
